Drawing on patent US20200040059A1, this text covers MFI for 40 substances.

“And” between values parts separate entries of the source, which are not always exact repeats. Equal entries are not always repeated.

The target in test [1] is CD80 (Homo sapiens (Human)) (UniProt P33681). Put plainly: flow cytometry, cells expressing CD80.
Test [2] has as its target human PD-L1, full length, on transfected HEK293 cells (human) (UniProt Q9NZQ7). The test can be described thus: flow cytometry, Fc fusion at 22.2 nM on HEK293 cells transfected with PD-L1.
The target of test [3] is human CD28, full length, on transfected HEK293 cells (human) (UniProt P10747). Put plainly: flow cytometry, Fc fusion at 66.6 nM on HEK293 cells transfected with CD28.
Test [4] concerns the target T1, CD96 (UniProt P40200).
T1 sequence (looked up): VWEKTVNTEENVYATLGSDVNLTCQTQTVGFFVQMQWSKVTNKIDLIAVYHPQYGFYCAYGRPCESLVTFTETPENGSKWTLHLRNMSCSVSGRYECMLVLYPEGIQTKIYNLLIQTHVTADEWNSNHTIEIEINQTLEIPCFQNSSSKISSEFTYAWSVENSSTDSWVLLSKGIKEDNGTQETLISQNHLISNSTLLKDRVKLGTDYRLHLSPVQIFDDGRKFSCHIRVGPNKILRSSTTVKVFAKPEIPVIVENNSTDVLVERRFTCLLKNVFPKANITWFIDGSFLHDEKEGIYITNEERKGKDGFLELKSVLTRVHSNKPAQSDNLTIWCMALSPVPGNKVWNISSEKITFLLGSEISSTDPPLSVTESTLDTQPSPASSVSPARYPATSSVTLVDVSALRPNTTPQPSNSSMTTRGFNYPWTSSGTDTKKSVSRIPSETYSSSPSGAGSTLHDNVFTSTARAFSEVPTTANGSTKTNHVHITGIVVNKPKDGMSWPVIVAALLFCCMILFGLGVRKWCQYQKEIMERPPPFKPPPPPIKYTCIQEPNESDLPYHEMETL
Put plainly: flow cytometry, cells expressing target, 25 nM.

The target in test [5] is T2, CD226 (human) (UniProt Q15762).
T2 sequence: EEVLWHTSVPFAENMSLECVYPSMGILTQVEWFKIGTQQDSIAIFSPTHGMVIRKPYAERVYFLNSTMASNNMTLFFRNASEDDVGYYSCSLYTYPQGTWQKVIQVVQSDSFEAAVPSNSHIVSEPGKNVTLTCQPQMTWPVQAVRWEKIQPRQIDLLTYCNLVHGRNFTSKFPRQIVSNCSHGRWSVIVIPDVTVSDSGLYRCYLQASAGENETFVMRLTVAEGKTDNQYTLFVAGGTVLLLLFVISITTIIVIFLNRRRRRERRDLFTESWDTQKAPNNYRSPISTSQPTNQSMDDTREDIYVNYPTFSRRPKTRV
Put plainly: flow cytometry, cells expressing target, 25 nM.

In test [6] the target is CD112R (human) (UniProt Q6DKI7). Put plainly: flow cytometry, cells expressing target, 25 nM.
Sequence of CD112R (human) (Q6DKI7 whole entry): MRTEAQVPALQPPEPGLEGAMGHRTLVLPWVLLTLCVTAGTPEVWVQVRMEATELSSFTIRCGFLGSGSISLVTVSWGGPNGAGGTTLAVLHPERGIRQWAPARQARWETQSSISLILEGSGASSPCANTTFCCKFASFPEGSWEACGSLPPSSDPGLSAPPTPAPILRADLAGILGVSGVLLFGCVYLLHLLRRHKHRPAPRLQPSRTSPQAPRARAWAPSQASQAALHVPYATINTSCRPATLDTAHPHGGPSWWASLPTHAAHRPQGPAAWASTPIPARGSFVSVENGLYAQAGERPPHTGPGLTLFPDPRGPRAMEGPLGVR
In test [7] the target is PD-L1 (human) (UniProt Q9NZQ7). The test can be described thus: flow cytometry on HEK293 cells transfected with PD-L1.
Test [8] addresses CD96, expressed on transfected cells (UniProt P40200). Put plainly: flow cytometry on transfected cells.
The target of test [9] is T3, human CD226, full length, expressed on transfected cells (human) (UniProt Q15762).
T3 sequence: T2 sequence
The test can be described thus: flow cytometry on transfected cells.

Test [10] has as its target CD112R, expressed on transfected cells (human) (UniProt Q6DKI7). The test can be described thus: flow cytometry on transfected cells.

Sequence of CD80 (Homo sapiens (Human)) (P33681 35-288 limits assumed): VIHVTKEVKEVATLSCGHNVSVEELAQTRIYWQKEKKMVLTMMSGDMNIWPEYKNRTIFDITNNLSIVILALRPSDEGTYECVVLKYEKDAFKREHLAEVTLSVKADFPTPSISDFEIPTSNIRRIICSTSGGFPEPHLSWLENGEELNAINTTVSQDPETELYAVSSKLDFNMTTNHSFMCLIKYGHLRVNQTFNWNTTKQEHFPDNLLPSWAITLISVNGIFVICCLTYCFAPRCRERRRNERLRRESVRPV
Sequence of CD112R, expressed on transfected cells (human) (Q6DKI7 whole entry): as the sequence (Q6DKI7 whole entry) above
Sequence of CD112-IgV (Q92692 32-156 limits assumed): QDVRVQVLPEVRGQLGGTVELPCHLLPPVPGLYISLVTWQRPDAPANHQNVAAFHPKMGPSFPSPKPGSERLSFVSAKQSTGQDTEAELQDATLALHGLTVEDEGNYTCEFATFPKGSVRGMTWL

For the substance “variant PD-L1 ECD-Fc V129D, P198T (from UniProt Q9NZQ7 19-238) (Fc fusion)”, the MFI at 20 nM in test [1] amounted to 152.

As to “CD80 variant IgV-Fc V22L/E35G/A71D/L72P (from UniProt P33681 35-141) (Fc fusion)”, in test [2], the MFI at 22.2 nM was 1400 MFI. Also, the MFI at 66.6 nM in test [3] amounted to 8150 MFI. “variant PD-L1 ECD-Fc G15A, V129D (from UniProt Q9NZQ7 19-238) (Fc fusion)” came in with an MFI at 20 nM in test [1] of 128. Turning to “CD112-IgV (from UniProt Q92692 32-156) (Fc fusion)”, the MFI at 25 nM in test [4] came out at 1170 MFI; in test [5], 824 MFI. “CD80 variant IgV-Fc Y31H/E35D/T41S/V68L/K93R/R94W (from UniProt P33681 35-141) (Fc fusion)” yielded an MFI at 22.2 nM in test [2] of 18900 MFI. The substance further returned an MFI at 66.6 nM in test [3] of 2450 MFI. Taken in the same sequence, the figures for “CD80 variant IgV-Fc A12T/E24D/E35D/D46V/I61V/L72P/E95V (from UniProt P33681 35-141) (Fc fusion)” were 1220 MFI and 7410 MFI. Turning to “CD155 variant IgV-Fc V9L, P18Y, V25A, V38G, M55V, A77T, L79P, M90I, F91S, L104M (from UniProt P15151 24-139) (Fc fusion)”, the figures for the MFI at 25 nM in test [6], in test [4] and in [5] were 919 MFI, 18000 MFI and 26000 MFI, respectively. Substance “variant PD-L1 ECD-Fc M18V, I98L, L124S, P198T, L206F (from UniProt Q9NZQ7 19-238) (Fc fusion)” came in with an MFI at 20 nM in test [1] of 143. In the case of “CD80 variant IgV-Fc D46E/A71D (from UniProt P33681 35-141) (Fc fusion)”, in [2], the MFI at 22.2 nM is 22800 MFI. The same substance yielded an MFI at 66.6 nM in test [3] of 16800 MFI.

In the case of “CD155 variant IgV-Fc P18S, L21M, Y30F, N35D, R84W, F91S, T107M, D116G (from UniProt P15151 24-139) (Fc fusion)”, the MFI at 25 nM came out at 946 MFI in test [6], 1030 MFI in [4] and 743 MFI in test [5]. On to “variant PD-L1 ECD-Fc S99G, T185A, R195G, P198T (from UniProt Q9NZQ7 19-238) (Fc fusion)”, for which, in test [1], the MFI at 20 nM came out at 22100. With “CD155 variant IgV-Fc T15I, P18S, V33M, N35F, T39S, M55L, R78S, L79P, F91S, T107M (from UniProt P15151 24-139) (Fc fusion)”, the MFI at 25 nM came to 789 MFI in [6], 2710 MFI in [4] and 1020 MFI in [5].

In turn, “CD80 variant IgV-Fc E35D/I67L/A71D (from UniProt P33681 35-141) (Fc fusion)” gave an MFI at 22.2 nM in test [2] of 9350 MFI. The substance further came in with an MFI at 66.6 nM in [3] of 11200 MFI. As for “variant PD-L1 ECD-Fc I36T, M97L, V129D (from UniProt Q9NZQ7 19-238) (Fc fusion)”, the MFI at 20 nM in test [1] was found to be 50900. For the substance “CD155 variant IgV-Fc P18S, W46R, E68D, L79P, F91S, T107M, R113G (from UniProt P15151 24-139) (Fc fusion)”, the results for the MFI at 25 nM in [6], in test [4] and in test [5] were 798 MFI, 737 MFI and 717 MFI, respectively. “variant PD-L1 ECD-Fc I36S, M97L (from UniProt Q9NZQ7 19-238) (Fc fusion)” came in with an MFI at 20 nM in [1] of 44600. Regarding “CD155 variant IgV-Fc P18S, P34S, E51V, L79P, F91S, G111R (from UniProt P15151 24-139) (Fc fusion)”, the MFI at 25 nM in test [6] came to 853 MFI; in test [4], 892 MFI; in test [5], 769 MFI. Consider “CD80 variant IgV-Fc E35D/A71D (IgV SEQ ID NO:622) (from UniProt P33681 35-141) (Fc fusion)”, for which, in test [2], the MFI at 22.2 nM turned out to be 13800 MFI. Besides, the MFI at 66.6 nM in test [3] amounted to 15000 MFI.

“CD80 variant IgV-Fc E35D/M43I/A71D (from UniProt P33681 35-141) (Fc fusion)” showed an MFI at 22.2 nM in [2] of 27300 MFI. The substance further had an MFI at 66.6 nM in [3] of 6370 MFI.

“variant PD-L1 ECD-Fc V129D, T150A (from UniProt Q9NZQ7 19-238) (Fc fusion)” had an MFI at 20 nM in [1] of 142.

As for “CD155 variant IgV-Fc P18S, S42T, E51G, L79P, F91S, G92W, T107M (from UniProt P15151 24-139) (Fc fusion)”, the MFI at 25 nM is 857 MFI and 935 MFI in test [6]; 1050 MFI and 924 MFI in test [4]; 707 MFI and 851 MFI in [5]. Substance “CD80 IgV-Fc Q27H/M43I/A71D/R73S (from UniProt P33681 35-141) (Fc fusion)” had an MFI at 22.2 nM in test [7] of 8240 MFI. With “CD80 variant IgV-Fc V20I/M47V/A71D (from UniProt P33681 35-141) (Fc fusion)”, in test [2], the MFI at 22.2 nM came out at 9710 MFI. For the same substance, the MFI at 66.6 nM in test [3] was 15100 MFI.

In turn, “variant PD-L1 ECD-Fc K57R, S99G, R195G (from UniProt Q9NZQ7 19-238) (Fc fusion)” had an MFI at 20 nM in [1] of 11000. “CD80 variant IgV-Fc A71D/L72V/E95K (from UniProt P33681 35-141) (Fc fusion)” came in with an MFI at 22.2 nM in test [2] of 8420 MFI. The same substance had an MFI at 66.6 nM in test [3] of 6310 MFI. Regarding “variant PD-L1 ECD-Fc V129D, H202Q (from UniProt Q9NZQ7 19-238) (Fc fusion)”, the MFI at 20 nM in test [1] is 219. Consider “CD80 variant IgV-Fc T13R/M42V/M47I/A71D (from UniProt P33681 35-141) (Fc fusion)”, for which the MFI at 22.2 nM in test [2] came out at 1870 MFI. The substance further had an MFI at 66.6 nM in [3] of 16700 MFI. In [2], “CD80 variant IgV-Fc E35G/K54E/A71D/L72P (from UniProt P33681 35-141) (Fc fusion)” came in with an MFI at 22.2 nM of 1580 MFI. The substance also displayed an MFI at 66.6 nM in test [3] of 3700 MFI. For the substance “CD80 variant IgV-Fc E35D/M47I/L70M (from UniProt P33681 35-141) (Fc fusion)”, in test [2], the MFI at 22.2 nM was 49100 MFI. The substance “variant PD-L1 ECD-Fc K57R, S99G (from UniProt Q9NZQ7 19-238) (Fc fusion)” had an MFI at 20 nM in [1] of 16300. Substance “CD80 variant IgV-Fc H18Y/A71D/L72P/E88V (from UniProt P33681 35-141) (Fc fusion)” gave an MFI at 22.2 nM in test [2] of 1080 MFI. Besides, the MFI at 66.6 nM in test [3] turned out to be 8860 MFI.

In [1], “variant PD-L1 ECD-Fc M18V, M97L, T176N, R195G (from UniProt Q9NZQ7 19-238) (Fc fusion)” yielded an MFI at 20 nM of 45300. For the substance “CD155 variant S42W, S52Q, V57L, Q62Y IgV-Fc (from UniProt P15151 24-139) (Fc fusion)”, the MFI at 100 nM was 1700 in test [8], 2140 in test [9] and 1840 in test [10]. The like results for “CD155 variant S42C, S52M, Q62F IgV-Fc (from UniProt P15151 24-139) (Fc fusion)” were, in that order, 1480, 2080 and 1590. Take “CD155 variant IgV-Fc V9I, P18S, S24P, H49Q, F58Y, Q60R, Q62K, L79P, F91S, T107M (from UniProt P15151 24-139) (Fc fusion)”: the results for the MFI at 25 nM in test [6], in [4] and in test [5] were 1030 MFI, 43900 MFI and 1090 MFI, respectively. In test [7], “CD80 IgV-Fc I30V/T57I/L70P/A71D/A91T (from UniProt P33681 35-141) (Fc fusion)” yielded an MFI at 22.2 nM of 5890 MFI.

In test [1], “variant PD-L1 ECD-Fc E54G, M97L, S99G (from UniProt Q9NZQ7 19-238) (Fc fusion)” returned an MFI at 20 nM of 51900. As to “variant PD-L1 ECD-Fc V93E, V129D (from UniProt Q9NZQ7 19-238) (Fc fusion)”, the MFI at 20 nM in [1] is 150. As for “CD155 variant IgV-Fc V11A, P18T, N35S, L79P, S87T, F91S (from UniProt P15151 24-139) (Fc fusion)”, the MFI at 25 nM in test [6] turned out to be 1270 MFI; in [4], 69900 MFI; in [5], 274000 MFI. In test [2], “CD80 variant IgV-Fc E35D/A71D/L72V (from UniProt P33681 35-141) (Fc fusion)” came in with an MFI at 22.2 nM of 13100 MFI.
